B1: deletion of the C-terminal 20 amino acid homology domain of PTP HSCF: PTP HSCF deletion mutant missing the C-terminal homology domain (protein, UniProt Q99952 1-440, looked up, fragment)
chain: MSRSLDSARSFLERLEARGGREGAVLAGEFSDIQACSAAWKADGVCSTVAGSRPENVRKNRYKDVLPYDQTRVILSLLQEEGHSDYINGNFIRGVDGSLAYIATQGPLPHTLLDFWRLVWEFGVKVILMACREIENGRKRCERYWAQEQEPLQTGLFCITLIKEKWLNEDIMLRTLKVTFQKESRSVYQLQYMSWPDRGVPSSPDHMLAMVEEARRLQGSGPEPLCVHCSAGCGRTGVLCTVDYVRQLLLTQMIPPDFSLFDVVLKMRKQRPAAVQTEEQYRFLYHTVAQMFCSTLQNASPHYQNIKENCAPLYDDALFLRTPQALLAIPRPPGGVLRSISVPGSPGHAMADTYAVVQKRGAPAGAGSGTQTGTGTGTGARSAEEAPLYSKVTPRAQRPGAHAEDARGTLPGRVPADQSPAGSGAYEDVAGGAQTGGLGF
B2: delta 25: PST PIP missing the N-terminal 25 amino acids (protein)
chain: LQRLLDGRKMCKDVEELLRQRAQAEERYGKELVQIARKAGGQTEMNSLRTSFDSLKQQTENVGSAHIQLALALREELRSLEEFRERQKEQRKKYEAIMDRVQKSKLSLYKKTMESKKAYDQKCRDADDAEQAFERVSANGHQKQVEKSQNKAKQCKESATEAERVYRQNIEQLERARTEWEQEHRTTCEAFQLQEFDRLTILRNALWVHCNQLSMQCVKDDELYEEVRLTLEGCDVEGDINGFIQSKSTGREPPAPVPYQNYYDREVTPLIGSPSIQPSCGVIKRFSGLLHGSPKTTPSAPAASTETLTPTPERNELVYASIEVQATQGNLNSSAQDYRALYDYTAQNSDELDISAGDILAVILEGEDGWWTVERNGQRGFVPGSYLEKLDYKDDDDK
B3: PXXP-HSCF peptide (PTP HSCF 432-451) (peptide)
peptide: GFNLRIGRPKGPRDPPAEWT
notes: Synthetic, FMOC chemistry; also called proline rich peptide derived from the C-terminal homology region of PTP HSCF
B4: PXXP-PEP peptide (PTP PEP 782-800) (peptide)
peptide: GFGNRFSKPKGPRNPPSAW
notes: Synthetic, FMOC chemistry; also called proline rich peptide derived from the C-terminal homology region of PTP PEP
B5: PXXP-PEST peptide (PTP PEST 761-780) (peptide)
peptide: GFGNRCGKPKGPRDPPSEWT
notes: Synthetic, FMOC chemistry; also called proline rich peptide derived from the C-terminal homology region of PTP PEST

Legend:
PSTPIP = target: T1, PSTPIP (Mus musculus, UniProt P97814); assay: In vitro GST pull-down binding of PTP HSCF forms to GST PSTPIP; set-up: species or system murine; details: 1 or 10 μg/ml GST PST PIP
T1 construct: containing the full-length cDNA for PSTPIP (amino acids 2-415) was subcloned into pGEX4T-2; made in house; host or cells: E. coli DH5-alpha
T1 sequence (P97814 2-415): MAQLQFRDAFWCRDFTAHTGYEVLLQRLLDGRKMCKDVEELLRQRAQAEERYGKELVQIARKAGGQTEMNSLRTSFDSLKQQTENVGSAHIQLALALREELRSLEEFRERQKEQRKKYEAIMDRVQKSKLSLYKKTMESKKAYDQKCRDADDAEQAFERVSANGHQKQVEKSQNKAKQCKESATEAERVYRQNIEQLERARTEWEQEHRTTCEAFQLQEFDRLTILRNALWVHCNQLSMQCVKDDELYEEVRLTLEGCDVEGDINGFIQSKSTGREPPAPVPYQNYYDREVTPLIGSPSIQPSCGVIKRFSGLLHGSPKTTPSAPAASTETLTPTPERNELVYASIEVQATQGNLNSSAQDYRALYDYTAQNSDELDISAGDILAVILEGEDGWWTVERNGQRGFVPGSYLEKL
Experimental: The binding was carried out according to the method of Wong and Johnson (Wong et al., J. Biol. Chem. 271(35):20981-20984 (1996)). Briefly, 1 μg of plasmid with either the PSTPIP protein or PTP HSCF under the control of the Sp6 promoter was in vitro transcribed/translated using the Promega™ TnT Rabbit Reticulocyte™ system. Samples were diluted in 50 mM HEPES, pH 7.2, 1% triton X 100, 10% glycerol, 100 mM NaCl, 5 mM EDTA and 2 μg/ml each of leupeptin, pepstatin, aprotinin, and PMSF. […] This was reacted for 1 hour at 4° C. and then the resin washed 6 times in HEPES/Triton binding buffer before SDS gel electrophoresis. The peptides were synthesized on an automated Milligen 9050 Peptide Synthesizer using standard solid phase chemistry with FMOC protected amino acids on a p-alkoxybenzyl alcohol resin. Dried peptides were re-suspended in the HEPES/Triton Binding buffer at a concentration of 10 mg/ml. Peptide inhibition was performed by adding the peptide first to the in vitro translation product and then the GST-fusion followed by the GSH-Sepharose. […]
In vitro binding analyses between various PTP HSCF and PST PIP constructs were performed as previously described (Spencer et al, (1997), supra). […] Samples were than reacted with GST fusion proteins at various concentrations, and the bound proteins were centrifuged using glutathione-sepharose beads and analyzed on SDS polyacrylamide gels. […]

PTP HSCF = target: T2, PTP HSCF (Mus musculus, UniProt Q61152); assay: In vitro GST pull-down binding of PST PIP forms to PTP HSCF; details: in vitro
T2 construct: the PST (and C-terminal homolog) of PTP HSCF (amino acids 304-453); made in house; host or cells: E. coli DH5-alpha
T2 sequence (Q61152 304-453): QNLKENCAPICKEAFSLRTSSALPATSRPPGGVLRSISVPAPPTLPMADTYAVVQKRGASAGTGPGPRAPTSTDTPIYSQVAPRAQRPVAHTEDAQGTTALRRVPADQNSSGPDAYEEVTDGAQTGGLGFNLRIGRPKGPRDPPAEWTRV
Experimental: The binding was carried out according to the method of Wong and Johnson (Wong et al., J. Biol. Chem. 271(35):20981-20984 (1996)). Briefly, 1 μg of plasmid with either the PSTPIP protein or PTP HSCF under the control of the Sp6 promoter was in vitro transcribed/translated using the Promega™ TnT Rabbit Reticulocyte™ system. Samples were diluted in 50 mM HEPES, pH 7.2, 1% triton X 100, 10% glycerol, 100 mM NaCl, 5 mM EDTA and 2 μg/ml each of leupeptin, pepstatin, aprotinin, and PMSF. […] This was reacted for 1 hour at 4° C. and then the resin washed 6 times in HEPES/Triton binding buffer before SDS gel electrophoresis. The peptides were synthesized on an automated Milligen 9050 Peptide Synthesizer using standard solid phase chemistry with FMOC protected amino acids on a p-alkoxybenzyl alcohol resin. Dried peptides were re-suspended in the HEPES/Triton Binding buffer at a concentration of 10 mg/ml. Peptide inhibition was performed by adding the peptide first to the in vitro translation product and then the GST-fusion followed by the GSH-Sepharose. The binding/washing steps were as previously described. The peptides synthesized and the PTPs they were derived from were: • PXXP-HSCF: 432[…]451 (PTP HSCF) (SEQ ID NO:20), • PXXP-PEP: 782GFGNRFSKPKGPRNPPSAW800 (PTP PEP) (SEQ ID NO:21), • PXXP-PEST: 761[…]780 (PTP PEST) SEQ ID NO:22), • PXXP-CONTROL: 334[…]353 (PTP HSCF) (SEQ ID NO:23).
In vitro binding analyses between various PTP HSCF and PST PIP constructs were performed as previously described (Spencer et al, (1997), supra). Briefly, plasmids were transcribed and translated in vitro using the TnT Rabbit Reticulocyte Lysate System (Promega). Samples were diluted in 50 mM HEPES, pH 7.2, 1% triton X-100, 10% glycerol, 100 mM NaCl, and 2 μg/ml each of leupeptin, pepstatin, aprotinin and PMSF (lysis buffer). Samples were than reacted with GST fusion proteins at various concentrations, and the bound proteins were centrifuged using glutathione-sepharose beads and analyzed on SDS polyacrylamide gels. C-terminally-derived peptide inhibition studies were performed by incubating the GST fusion protein binding reactions in the presence of 10 μg/ml of the indicated peptides. Peptides were produced by FMOC-protected amino acids as previously described (Spencer et al, (1997), supra). In vivo interactions between various forms of PTP HSCF and PST PIP were also performed as previously described (Spencer et al, (1997), supra). Briefly, COS cells were transfected with various constructs, and after 48 hours, lysates were prepared and immunoprecipitated with antibodies to either the FLAG epitope contained at the C-terminus of PST PIP or an HA epitope contained at the N-terminus of PTP HSCF. The resultant blots were probed with anti-FLAG to detect PST PIP, anti-HA to detect PTP HSCF or anti-phosphotyrosine to detect levels of this modified amino acid in each protein.

CHO cells = assay: Confocal microscopy of PST PIP forms expressed in CHO cells; assay type: cell-based, Chinese hamster; details: transfected CHO cells
Experimental: Confocal microscopy was performed as previously described (Spencer et al, (1997), supra). Briefly, CHO cells in chamber slides were transfected using Lipofectamine and the indicated plasmids. 48 hours later, cells were fixed in formaldehyde and stained with an anti-FLAG epitope specific antibody (Kodak) and Fluorescein-Phalloidin (Molecular Probes). Anti-Flag stained cells were washed and stained with Cy3-conjugated sheep anti-mouse IgG. Stained cells were observed using Molecular Dynamics Confocal Microscope™ (2001) and analyzed with ImageSpace™ software (Molecular Dynamics).

[1] = target: T3, full-length PSTPIP tagged with the FLAG epitope at the C-terminus (murine, UniProt P97814 1-415); assay: peptide competition of the GST-PST-rich+CTH PTP HSCF pulldown of in vitro translated PSTPIP
T3 construct: In vitro transcribed/translated in rabbit reticulocyte lysate, or expressed in COS cells
T3 sequence: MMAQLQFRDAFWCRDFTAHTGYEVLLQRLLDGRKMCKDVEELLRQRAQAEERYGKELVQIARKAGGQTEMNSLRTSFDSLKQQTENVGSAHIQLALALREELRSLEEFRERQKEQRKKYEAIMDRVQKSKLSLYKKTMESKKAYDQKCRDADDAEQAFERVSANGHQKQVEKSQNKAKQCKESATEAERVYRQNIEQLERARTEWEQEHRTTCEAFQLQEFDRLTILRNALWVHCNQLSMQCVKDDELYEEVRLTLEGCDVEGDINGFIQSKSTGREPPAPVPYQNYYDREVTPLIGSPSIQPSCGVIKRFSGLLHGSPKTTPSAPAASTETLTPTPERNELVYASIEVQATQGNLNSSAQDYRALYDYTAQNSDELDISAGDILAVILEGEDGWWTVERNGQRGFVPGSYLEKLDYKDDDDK
Experimental: This was reacted for 1 hour at 4° C. and then the resin washed 6 times in HEPES/Triton binding buffer before SDS gel electrophoresis. The peptides were synthesized on an automated Milligen 9050 Peptide Synthesizer using standard solid phase chemistry with FMOC protected amino acids on a p-alkoxybenzyl alcohol resin. Dried peptides were re-suspended in the HEPES/Triton Binding buffer at a concentration of 10 mg/ml. Peptide inhibition was performed by adding the peptide first to the in vitro translation product and then the GST-fusion followed by the GSH-Sepharose. The binding/washing steps were as previously described. The peptides synthesized and the PTPs they were derived from were:
The region of PTP HSCF which interacts with PSTPIP was identified by producing deletion mutants of the enzyme missing either the 20 amino acid C-terminal domain which is highly conserved in all of the PEST PTPs (Yang et al. (1993) supra, Matthews et al., (1992) supra, Cheng et al., (1996) supra, Huang et al., (1996) supra, Aoki et al., (1996) Dosil et al., (1996) supra and Kim et al., (1996) supra) or both this domain as well as the longer proline, serine and threonine rich region C-terminal to the catalytic domain (FIG. 4A). FIG. 4B-C reveal that deletion of the C-terminal 20 amino acid homology domain of PTP HSCF completely abolished the interaction between PTP HSCF and PSTPIP. Because this region is conserved in all PEST PTPs, it is possible that both PTP PEST (Yang et al., (1993) supra) as well as PTP PEP (Matthews et al., (1992) supra) also interact with PSTPIP. In order to examine this possibility, as well as to examine if the 20 amino acid C-terminal region is sufficient for this interaction, 20 residue long peptides derived from the homologous C-terminal domain of three PEST PTPs were used to compete with the interaction between PTP HSCF and PSTPIP (FIG. 4D). In this form of the assay, a GST fusion derived from the PST-rich and C-terminal homology regions of the phosphatase was used to precipitate in vitro translated PSTPIP in the presence of varying amounts of peptides. […]

Row | Molecule | lowest peptide concentration that effectively blocks the interaction [1] [nM] | other results
1 | B1 |  | binding of in vitro translated PTP HSCF forms to GST PSTPIP (PSTPIP): completely abolished the interaction
2 | B2 |  | binding of in vitro translated PST PIP forms to GST fusion of C-terminal 149 amino acids of PTP HSCF (PTP HSCF): capable of interacting; cellular localization of PST PIP forms (assay for correct folding) (CHO cells): predominantly co-localized with the cortical actin cytoskeleton
3 | B3 | ~800 | 
4 | B4 | ~800 | 
5 | B5 | ~800 | 
